# Reference: paper PMC10164138 (Structure (London, England : 1993), 2023)
# Biological target: the molecule itself
# Experiment: cryo-EM structure
protein,measurement,value
"CfaB, major pilin subunit of CFA/I pili (natural protein, enterotoxigenic Escherichia coli (ETEC), UniProt P0CK93 24-170, looked up) VEKNITVTASVDPAIDLLQADGNALPSAVKLAYSPASKTFESYRVMTQVHTNDATKKVIVKLADTPQLTDVLNSTVQMPISVSWGGQVLSTTAKEFEAAALGYSASGVNGVSSSQELVISAAPKTAGTAPTAGNYSGVVSLVMTLGS",binding result,binds
